Reference: paper PMC9691366, “Modulating the pharmacokinetic profile of Actinium-225-labeled macropa-derived radioconjugates by dual targeting of PSMA and albumin” (Theranostics, 2022)

Settings: over 7 days
Procedure: The final conjugates mcp-M-alb-PSMA and mcp-D-alb-PSMA were successfully radiolabeled with ^225Ac at a concentration down to 10^-6 M with radiochemical conversions of higher than 99% within 15 min at room temperature and a resulting molar activity of 1 MBq/nmol. The radiolabeled actinium complexes [^225Ac]Ac-mcp-M-alb-PSMA and [^225Ac]Ac-mcp-D-alb-PSMA were characterized regarding decomplexation (by radio-TLC) and degradation (by radio-HPLC). […] Log D values for [^225Ac]Ac-mcp-M-alb-PSMA and [^225Ac]Ac-mcp-D-alb-PSMA were determined at pH 7.4 to be ‑2.4 and -1.7, respectively.
^225Ac was commercially supplied by ITM as [^225Ac]AcCl3. Radiolabeling was performed using 100 kBq ^225Ac, the respective ligand stem solution (10^-2 M - 10^-6 M) to reach the required ligand concentration (10^-3 M - 10^-7 M), the necessary amount of 2,5-dihydroxybenzoic acid (final concentration 0.1 M) and a volume of 0.2 M NH4OAc (pH 6) to adjust a total volume of 100 µL. […]
Once the labeling reaction was finished, samples were taken out and the ^225Ac-radioconjugates were analyzed via TLC (two systems: 1 - 0.05 M EDTA (pH 7) on silica plates; 2 - 70/30 acetonitrile/H2O on alugram RP-CN plates) and analytical HPLC on a Jasco HPLC system with GABI analyzer (Elysia Raytest) for gamma detection on a Phenomenex Phenyl-Hexyl column in water/acetonitrile (0.1% TFA each).

O=C(O)CC[C@H](NC(=O)N[C@@H](CCCCNC(=O)[C@H](Cc1ccc2ccccc2c1)NC(=O)[C@H]1CC[C@H](CNC(=O)[C@H](CCCCn2cc(COc3cc(CN4CCOCCOCCN(Cc5cc(OCc6cn(CCCC[C@H](NC(=O)[C@H](CCC(=O)O)NC(=O)CCCc7ccc(I)cc7)C(=O)NC[C@H]7CC[C@H](C(=O)N[C@@H](Cc8ccc9ccccc9c8)C(=O)NCCCC[C@H](NC(=O)N[C@@H](CCC(=O)O)C(=O)O)C(=O)O)CC7)nn6)cc(C(=O)O)n5)CCOCCOCC4)nc(C(=O)O)c3)nn2)NC(=O)[C@H](CCC(=O)O)NC(=O)CCCc2ccc(I)cc2)CC1)C(=O)O)C(=O)O [[^225Ac]Ac-mcp-D-alb-PSMA, metal not drawn]
^225Ac release (decomplexation, radio-TLC): did not show any ^225Ac release

O=C(O)CC[C@H](NC(=O)N[C@@H](CCCCNC(=O)[C@H](Cc1ccc2ccccc2c1)NC(=O)[C@H]1CC[C@H](CNC(=O)[C@H](CCCCn2cc(COc3cc(CN4CCOCCOCCN(Cc5cccc(C(=O)O)n5)CCOCCOCC4)nc(C(=O)O)c3)nn2)NC(=O)[C@H](CCC(=O)O)NC(=O)CCCc2ccc(I)cc2)CC1)C(=O)O)C(=O)O [[^225Ac]Ac-mcp-M-alb-PSMA, metal not drawn]
^225Ac release (decomplexation, radio-TLC): did not show any ^225Ac release
